Assay results taken from patent publication US20030022247A1, “Substance which inhibits binding of information transfer molecule for 1175-tyrosine phosphorylated KDR/FLK-1 and usages of the same” (priority 2000, published 2003).
One block for each molecule: values may come before it. Square brackets hold non-standard residues; d marks the D form. Ends that are not written are not given here. pY = N[C@@H](Cc1ccc(OP(=O)(O)O)cc1)C(=O)O

Experiments:
[1] = system: various cancer cells transplanted into mice; details: cited from earlier work
[2] = target: T1, binding of the auto-phosphorylated KDR/Flk-1 and PLC-γ (Homo sapiens, UniProt P19174+P35968); experiment: In vitro binding of GST-PLC-γ C-SH2 to KDR/Flk-1 from NIH3T3-KDR cell extract; format: biochemical; details: coexisting with GST-PLC-γ C-SH2 beads and extract of VEGF-stimulated NIH3T3-KDR
T1 construct: a fusion protein of GST and SH2 domain of the C-terminal side of PLC-γ (GST-PLC-γ C-SH2); host or cells: NIH3T3-KDR cell extract (KDR/Flk-1)
Method: Onto glutathione-Sepharose 4B beads (manufactured by Amersham Pharmacia Biotech), 1.5 μg of GST, a fusion protein of GST and SH2 domain (2 domains) of PLC-γ (GST-PLC-γ SH2-SH2), a fusion protein of GST and SH2 domain of the N-terminal side of PLC-γ (GST-PLC-γ N-SH2) and a fusion protein of GST and SH2 domain of the C-terminal side of PLC-γ (GST-PLC-γ C-SH2) (all manufactured by Santa Cruz Biotechnology Inc.) was immobilized respectively, and the cell extracts were added thereto, followed by incubation at 4° C. for 2 hours. The beads were washed three times with a cooled cell extraction buffer and heated in an SDS sample buffer to dissolve the protein bound to the beads, and then SDS-PAGE was carried out. The KDR/Flk-1 bound to each of the added proteins was detected by immunoblotting using the anti-KDR/Flk-1 antibody. The KDR/Flk-1 was detected in the VEGF-stimulated cell with GST-PLC-γ SH2-SH2 and GST-PLC-γ C-SH2, but KDR/Flk-1 was not detected with GST-PLC-γ N-SH2.
The same test of (2) was carried out by allowing the anti-PY1175 antibody and the PY1175 peptide to coexist at the time of the reaction of GST-PLC-γ C-SH2-immobilized beads with the cell extract. As a result, KDR/Flk-1 was not detected even in the VEGF-stimulated cell, and binding of the auto-phosphorylated KDR/Flk-1 and PLC-γ was inhibited by the anti-PY1175 antibody and the PY1175 peptide.

[3] = target: T2, 1175-tyrosine phosphorylated KDR/Flk-1 (Homo sapiens, UniProt P35968); experiment: Tissue immunostaining of human umbilical cord vein endothelial cells; format: cell-based; details: 1 μg/ml peptide; cells 5 minutes after the VEGF stimulation
T2 construct: expressing endogenous KDR/Flk-1; host or cells: human umbilical cord vein endothelial cells (HUVEC)
Method: After blocking the fixed cells for 30 minutes with PBS containing 1% goat serum, tissue immunostaining was carried out using the anti-PY1175 antibody. The detection was carried out by fluorescence microscopic observation 30 minutes after treatment with an FITC-labeled anti-rabbit IgG antibody (manufactured by Cappel) diluted to 1/100. […] Accordingly, the anti-PY1175 antibody was useful for the detection of the 1175-tyrosine phosphorylation of KDR/Flk-1 by not only immunoblotting but also tissue immunostaining.

[4] = target: Flt-1 (Homo sapiens, UniProt P17948); details: VEGF binding to Flt-1; cited from earlier work
[5] = target: T3, mutated KDR/Flk-1 Y1175F (1175-tyrosine replaced by phenylalanine) (human, UniProt P35968 20-1356); experiment: immunoprecipitation with anti-KDR/Flk-1 antibody, immunoblotting with anti-PLC-γ antibody
T3 construct: Expressed in MSS31 cells by an adenovirus vector, VEGF-stimulated; cell extract; Phosphorylation at other tyrosines not specified

inhibition of binding of auto-phosphorylated KDR/Flk-1 and PLC-γ (GST-PLC-γ C-SH2) [2]: inhibited | inhibition of anti-PY1175 antibody staining by coexisting peptide [3]: staining was inhibited
Molecule: PY1175 peptide: SEQ ID NO:1: cysteine added to N-terminus of positions 1171 to 1180 of human KDR/Flk-1, tyrosine 1175 phosphorylated (CDGKD[pY]IVLPI)

inhibition of binding of auto-phosphorylated KDR/Flk-1 and PLC-γ (GST-PLC-γ C-SH2) [2]: inhibition was not found
Molecule: Y1175 peptide: SEQ ID NO:2: the same amino acid sequence of the PY1175, but the tyrosine is not phosphorylated (CDGKDYIVLPI; a peptide SEQ ID NO1 without phosphorylation) [reference compound]

binding result [5]: no binding
B1: phospholipase C-γ (PLC-γ) (enzyme, mouse, UniProt Q62077 2-1302, looked up)
chain: AGVATPCANGCGPGAPSEAEVLHLCRSLEVGTVMTLFYSKKSQRPERKTFQVKLETRQITWSRGADKIEGSIDIREIKEIRPGKTSRDFDRYQEDPAFRPDQSHCFVILYGMEFRLKTLSLQATSEDEVNMWIKGLTWLMEDTLQAATPLQIERWLRKQFYSVDRNREDRISAKDLKNMLSQVNYRVPNMRFLRERLTDLEQRSGDITYGQFAQLYRSLMYSAQKTMDLPFLETNALRTGERPEHCQVSLSEFQQFLLEYQGELWAVDRLQVQEFMLSFLRDPLREIEEPYFFLDELVTFLFSKENSVWNSQLDAVCPDTMNNPLSHYWISSSHNTYLTGDQFSSESSLEAYARCLRMGCRCIELDCWDGPDGMPVIYHGHTLTTKIKFSDVLHTIKEHAFVASEYPVILSIEDHCSIAQQRNMAQHFRKVLGDTLLTKPVDIAADGLPSPNQLRRKILIKHKKLAEGSAYEEVPTSVMYSENDISNSIKNGILYLEDPVNHEWYPHYFVLTSSKIYYSEETSSDQGNEDEEEPKEASSSTELHSSEKWFHGKLGAGRDGRHIAERLLTEYCIETGAPDGSFLVRESETFVGDYTLSFWRNGKVQHCRIHSRQDAGTPKFFLTDNLVFDSLYDLITHYQQVPLRCNEFEMRLSEPVPQTNAHESKEWYHASLTRAQAEHMLMRVPRDGAFLVRKRNEPNSYAISFRAEGKIKHCRVQQEGQTVMLGNSEFDSLVDLISYYEKHPLYRKMKLRYPINEEALEKIGTAEPDYGALYEGRNPGFYVEANPMPTFKCAVKALFDYKAQREDELTFTKSAIIQNVEKQDGGWWRGDYGGKKQLWFPSNYVEEMINPAVLEPEREHLDENSPLGDLLRGVLDVPACQIAIRPEGKNNRLFVFSISMPSVAQWSLDVAADSQEELQDWVKKIREVAQTADARLTEGKMMERRKKIALELSELVVYCRPVPFDEEKIGTERACYRDMSSFPETKAEKYVNKAKGKKFLQYNRLQLSRIYPKGQRLDSSNYDPLPMWICGSQLVALNFQTPDKPMQMNQALFMAGGHCGYVLQPSTMRDEAFDPFDKSSLRGLEPCVICIEVLGARHLPKNGRGIVCPFVEIEVAGAEYDSTKQKTEFVVDNGLNPVWPAKPFHFQISNPEFAFLRFVVYEEDMFSDQNFLAQATFPVKGLKTGYRAVPLKNNYSEDLELASLLIKIDIFPAKENGDLSPFSGISLRERASDASSQLFHVRAREGSFEARYQQPFEDFRISQEHLADHFDSRERSTSDGPSSATNLIEDPLHDKLWKCSL
notes: whole, on cells; Endogenous intracellular PLC-γ co-precipitated with KDR/Flk-1 from MSS31 cell extracts

Further lines, the molecule ahead of its results:

Molecule: Cc1cc(C)c(/C=C2\C(=O)Nc3ccccc32)[nH]1 [SU5416]
angiogenesis, growth or metastasis of cancer cells [1]: inhibits angiogenesis, growth or metastasis

Molecule: vascular endothelial growth factor [VEGF]
Kd [4]: 0.02 nM
